Results on three substances are retold here after US6465220.

The test system of data set [1] is GalNAc4TAP24 glycopeptide.

Chain of soluble recombinant human GalNAc-T2 (pAcGP67-GalNAc-T2-sol) (chain, as listed by the source): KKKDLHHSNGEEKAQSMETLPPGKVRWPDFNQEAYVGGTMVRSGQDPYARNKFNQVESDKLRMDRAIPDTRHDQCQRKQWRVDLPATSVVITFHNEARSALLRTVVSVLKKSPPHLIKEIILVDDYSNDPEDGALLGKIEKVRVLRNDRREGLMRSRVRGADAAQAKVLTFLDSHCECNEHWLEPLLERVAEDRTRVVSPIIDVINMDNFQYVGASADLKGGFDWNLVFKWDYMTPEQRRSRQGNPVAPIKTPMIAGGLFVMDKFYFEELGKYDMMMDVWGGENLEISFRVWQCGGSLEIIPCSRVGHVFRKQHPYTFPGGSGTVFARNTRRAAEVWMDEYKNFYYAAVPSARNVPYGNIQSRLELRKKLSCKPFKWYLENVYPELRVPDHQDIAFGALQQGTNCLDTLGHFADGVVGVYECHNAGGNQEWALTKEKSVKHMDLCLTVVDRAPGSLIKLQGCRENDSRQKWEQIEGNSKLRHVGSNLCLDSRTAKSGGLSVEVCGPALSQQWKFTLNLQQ
Chain of PSGL-1b peptide (chain, as listed by the source): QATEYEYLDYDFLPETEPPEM
Chain of soluble human GalNAc-T4 (pAcGP67-GalNAc-T4506Vsol), amino acid residues 32-578 (chain, as listed by the source): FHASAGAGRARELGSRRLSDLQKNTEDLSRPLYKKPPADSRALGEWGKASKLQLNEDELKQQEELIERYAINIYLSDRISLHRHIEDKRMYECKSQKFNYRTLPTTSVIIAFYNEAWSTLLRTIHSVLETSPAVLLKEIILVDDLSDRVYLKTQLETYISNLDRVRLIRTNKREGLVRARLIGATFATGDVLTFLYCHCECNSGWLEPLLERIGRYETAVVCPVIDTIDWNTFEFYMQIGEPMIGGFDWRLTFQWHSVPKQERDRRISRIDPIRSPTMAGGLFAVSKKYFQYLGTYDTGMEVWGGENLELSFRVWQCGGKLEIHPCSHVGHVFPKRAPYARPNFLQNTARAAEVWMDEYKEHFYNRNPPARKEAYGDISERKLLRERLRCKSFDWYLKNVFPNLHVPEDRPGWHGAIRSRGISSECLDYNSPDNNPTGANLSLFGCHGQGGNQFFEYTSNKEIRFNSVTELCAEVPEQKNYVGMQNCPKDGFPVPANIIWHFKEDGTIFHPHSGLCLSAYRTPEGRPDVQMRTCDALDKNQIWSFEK
Chain of hCG-β peptide (chain, as listed by the source): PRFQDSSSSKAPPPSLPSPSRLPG
Chain of full coding human GalNAc-T4 (pVL-GalNAc-T4506Vfull) expressed in Sf9 cells (chain, as listed by the source): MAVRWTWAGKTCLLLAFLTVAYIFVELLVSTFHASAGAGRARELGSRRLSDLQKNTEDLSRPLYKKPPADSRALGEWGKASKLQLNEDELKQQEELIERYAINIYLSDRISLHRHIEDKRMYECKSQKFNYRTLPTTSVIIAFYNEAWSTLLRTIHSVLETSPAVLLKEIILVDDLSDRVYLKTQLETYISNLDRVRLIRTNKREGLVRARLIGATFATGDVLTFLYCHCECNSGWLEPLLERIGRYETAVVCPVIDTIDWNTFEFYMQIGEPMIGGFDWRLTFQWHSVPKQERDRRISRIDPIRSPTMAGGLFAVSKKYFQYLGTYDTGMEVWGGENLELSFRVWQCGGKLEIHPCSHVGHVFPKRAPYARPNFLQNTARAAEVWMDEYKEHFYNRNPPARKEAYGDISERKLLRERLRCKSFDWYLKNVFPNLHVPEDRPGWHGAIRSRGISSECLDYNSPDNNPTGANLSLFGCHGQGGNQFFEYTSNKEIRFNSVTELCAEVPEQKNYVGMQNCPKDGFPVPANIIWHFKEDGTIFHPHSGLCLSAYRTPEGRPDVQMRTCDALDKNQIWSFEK

Regarding “soluble human GalNAc-T4 (pAcGP67-GalNAc-T4506Vsol), amino acid residues 32-578”, the GalNAc-transferase activity at 0.06 mM peptide (milliunits/mg) with Muc2 peptide was 9; in the data set with Muc7 peptide, 21; in the data set with EA2 peptide, 15; in the data set on PSGL-1b peptide, 1.2; with TAP24 peptide it was 0.8; in [1], 4.4. Moreover, the GalNAc-transferase activity at 0.25 mM peptide (milliunits/mg) with Muc2 peptide was found to be 29; in the data set on Muc1b′ peptide it was 0.7; in the data set on Muc7 peptide, 53; in the data set with EA2 peptide, 42; in the data set with PSGL-1b peptide, 1.4; with TAP24 peptide, 2.7. Besides, the results for the GalNAc-transferase activity at 0.25 mM peptide (milliunits/mg) (in data set [1]; with Muc1a′ peptide) were 7.1 and 2, respectively. The GalNAc-transferase activity at 1 mM peptide (milliunits/mg) with Muc1b′ peptide was 0.9; with Muc1a′ peptide it was 6.7. Besides, the Km for acceptor substrate with Muc7 peptide was found to be 480 µM; in the data set with EA2 peptide, 2190 µM; in the data set with PSGL-1b peptide, 20 µM; in data set [1] it was 90 µM. For the same substance, the Vmax turned out to be 0.25 nmol/min/µg in the data set with Muc7 peptide, 0.44 nmol/min/µg in the data set with EA2 peptide, 0.003 nmol/min/µg with PSGL-1b peptide and 0.007 nmol/min/µg in [1].

Regarding “full coding human GalNAc-T4 (pVL-GalNAc-T4506Vfull) expressed in Sf9 cells”, the “GalNAc incorporation by MALDI-TOF of HPLC-purified product” value in data set [1] is “no incorporation was detected”.

“soluble recombinant human GalNAc-T2 (pAcGP67-GalNAc-T2-sol)”: the GalNAc-transferase activity at 0.06 mM peptide (milliunits/mg) is 169 in the data set on Muc2 peptide; 737 in the data set with Muc7 peptide; 0 in the data set with PSGL-1a peptide; 152 with EA2 peptide; 0.3 with PSGL-1b peptide; 73 with TAP24 peptide. Moreover, the GalNAc-transferase activity at 0.06 mM peptide (milliunits/mg) was 0 in data set [1] and 22 in the data set with hCG-β peptide. Also, the GalNAc-transferase activity at 0.25 mM peptide (milliunits/mg) in the data set on Muc2 peptide was determined as 128; in the data set with Muc1b′ peptide, 198; in the data set with Muc7 peptide, 396; with PSGL-1a peptide, 0; with EA2 peptide it was 376; in the data set on PSGL-1b peptide, 0.3. The GalNAc-transferase activity at 0.25 mM peptide (milliunits/mg) worked out at 222 with TAP24 peptide, 0 in [1], 28 in the data set on Muc1a′ peptide and 74 with hCG-β peptide. Besides, the GalNAc-transferase activity at 1 mM peptide (milliunits/mg) with Muc1b′ peptide amounted to 582; with Muc1a′ peptide, 83. Moreover, the Km for acceptor substrate was 15 µM with Muc7 peptide, 850 µM with EA2 peptide and greater than 2000 µM in the data set with PSGL-1b peptide. The Vmax is 0.64 nmol/min/µg in the data set with Muc7 peptide and 1.8 nmol/min/µg in the data set on EA2 peptide. Besides, the GalNAc-transferase activity result with PSGL-1a peptide and in the data set with PSGL-1b peptide was “exhibited poor activities with both peptide designs” in each case.
